Values belong to the binder of their own block, whether it stands above or below them.
What was measured:
[1] = target: T1, Xatr (endogenous Xenopus ATR in egg extracts) (Xenopus laevis, UniProt Q9DE14 1-2654); assay: GST pull-down from Xenopus egg extracts, immunoblot
T1 construct: Endogenous protein of whole or mock-depleted egg extracts, where endogenous Xatrip is also present

[2] = target: T1, Xatr (endogenous Xenopus ATR in egg …); assay: GST pull-down from Xenopus egg extracts, immunoblot (FIG. 4A)
Protocol: The extracts were filtered through a G25 Sephadex column to remove endogenous glutathione and incubated with glutathione agarose beads. The beads were isolated and immunoblotted for Xatr (top) and Xatrip (bottom). In FIG. 4B, egg extracts (lane 1) were immunodepleted with control (lane 2) or anti-Xatrip antibodies (lanes 3 and 4). For lane 4, recombinant XatripΔN222-FLAG was added back later. Extracts were immunoblotted with anti-Xatr (top) and anti-Xatrip antibodies (bottom). […] Binding of Xatr to glutathione beads was determined by immunoblotting as in FIG. 4A. In FIG. 4D, Xatr was immunoprecipitated from mock-depleted (lanes 1 and 2) and Xatrip-depleted extracts (lanes 3 and 4). Twice as much Xatrip-depleted extract was immunoprecipitated due to its reduced content of Xatr. […] Samples were also immunoblotted for Xatr (top) and Xatrip (middle).

T1 sequence (Q9DE14 whole entry): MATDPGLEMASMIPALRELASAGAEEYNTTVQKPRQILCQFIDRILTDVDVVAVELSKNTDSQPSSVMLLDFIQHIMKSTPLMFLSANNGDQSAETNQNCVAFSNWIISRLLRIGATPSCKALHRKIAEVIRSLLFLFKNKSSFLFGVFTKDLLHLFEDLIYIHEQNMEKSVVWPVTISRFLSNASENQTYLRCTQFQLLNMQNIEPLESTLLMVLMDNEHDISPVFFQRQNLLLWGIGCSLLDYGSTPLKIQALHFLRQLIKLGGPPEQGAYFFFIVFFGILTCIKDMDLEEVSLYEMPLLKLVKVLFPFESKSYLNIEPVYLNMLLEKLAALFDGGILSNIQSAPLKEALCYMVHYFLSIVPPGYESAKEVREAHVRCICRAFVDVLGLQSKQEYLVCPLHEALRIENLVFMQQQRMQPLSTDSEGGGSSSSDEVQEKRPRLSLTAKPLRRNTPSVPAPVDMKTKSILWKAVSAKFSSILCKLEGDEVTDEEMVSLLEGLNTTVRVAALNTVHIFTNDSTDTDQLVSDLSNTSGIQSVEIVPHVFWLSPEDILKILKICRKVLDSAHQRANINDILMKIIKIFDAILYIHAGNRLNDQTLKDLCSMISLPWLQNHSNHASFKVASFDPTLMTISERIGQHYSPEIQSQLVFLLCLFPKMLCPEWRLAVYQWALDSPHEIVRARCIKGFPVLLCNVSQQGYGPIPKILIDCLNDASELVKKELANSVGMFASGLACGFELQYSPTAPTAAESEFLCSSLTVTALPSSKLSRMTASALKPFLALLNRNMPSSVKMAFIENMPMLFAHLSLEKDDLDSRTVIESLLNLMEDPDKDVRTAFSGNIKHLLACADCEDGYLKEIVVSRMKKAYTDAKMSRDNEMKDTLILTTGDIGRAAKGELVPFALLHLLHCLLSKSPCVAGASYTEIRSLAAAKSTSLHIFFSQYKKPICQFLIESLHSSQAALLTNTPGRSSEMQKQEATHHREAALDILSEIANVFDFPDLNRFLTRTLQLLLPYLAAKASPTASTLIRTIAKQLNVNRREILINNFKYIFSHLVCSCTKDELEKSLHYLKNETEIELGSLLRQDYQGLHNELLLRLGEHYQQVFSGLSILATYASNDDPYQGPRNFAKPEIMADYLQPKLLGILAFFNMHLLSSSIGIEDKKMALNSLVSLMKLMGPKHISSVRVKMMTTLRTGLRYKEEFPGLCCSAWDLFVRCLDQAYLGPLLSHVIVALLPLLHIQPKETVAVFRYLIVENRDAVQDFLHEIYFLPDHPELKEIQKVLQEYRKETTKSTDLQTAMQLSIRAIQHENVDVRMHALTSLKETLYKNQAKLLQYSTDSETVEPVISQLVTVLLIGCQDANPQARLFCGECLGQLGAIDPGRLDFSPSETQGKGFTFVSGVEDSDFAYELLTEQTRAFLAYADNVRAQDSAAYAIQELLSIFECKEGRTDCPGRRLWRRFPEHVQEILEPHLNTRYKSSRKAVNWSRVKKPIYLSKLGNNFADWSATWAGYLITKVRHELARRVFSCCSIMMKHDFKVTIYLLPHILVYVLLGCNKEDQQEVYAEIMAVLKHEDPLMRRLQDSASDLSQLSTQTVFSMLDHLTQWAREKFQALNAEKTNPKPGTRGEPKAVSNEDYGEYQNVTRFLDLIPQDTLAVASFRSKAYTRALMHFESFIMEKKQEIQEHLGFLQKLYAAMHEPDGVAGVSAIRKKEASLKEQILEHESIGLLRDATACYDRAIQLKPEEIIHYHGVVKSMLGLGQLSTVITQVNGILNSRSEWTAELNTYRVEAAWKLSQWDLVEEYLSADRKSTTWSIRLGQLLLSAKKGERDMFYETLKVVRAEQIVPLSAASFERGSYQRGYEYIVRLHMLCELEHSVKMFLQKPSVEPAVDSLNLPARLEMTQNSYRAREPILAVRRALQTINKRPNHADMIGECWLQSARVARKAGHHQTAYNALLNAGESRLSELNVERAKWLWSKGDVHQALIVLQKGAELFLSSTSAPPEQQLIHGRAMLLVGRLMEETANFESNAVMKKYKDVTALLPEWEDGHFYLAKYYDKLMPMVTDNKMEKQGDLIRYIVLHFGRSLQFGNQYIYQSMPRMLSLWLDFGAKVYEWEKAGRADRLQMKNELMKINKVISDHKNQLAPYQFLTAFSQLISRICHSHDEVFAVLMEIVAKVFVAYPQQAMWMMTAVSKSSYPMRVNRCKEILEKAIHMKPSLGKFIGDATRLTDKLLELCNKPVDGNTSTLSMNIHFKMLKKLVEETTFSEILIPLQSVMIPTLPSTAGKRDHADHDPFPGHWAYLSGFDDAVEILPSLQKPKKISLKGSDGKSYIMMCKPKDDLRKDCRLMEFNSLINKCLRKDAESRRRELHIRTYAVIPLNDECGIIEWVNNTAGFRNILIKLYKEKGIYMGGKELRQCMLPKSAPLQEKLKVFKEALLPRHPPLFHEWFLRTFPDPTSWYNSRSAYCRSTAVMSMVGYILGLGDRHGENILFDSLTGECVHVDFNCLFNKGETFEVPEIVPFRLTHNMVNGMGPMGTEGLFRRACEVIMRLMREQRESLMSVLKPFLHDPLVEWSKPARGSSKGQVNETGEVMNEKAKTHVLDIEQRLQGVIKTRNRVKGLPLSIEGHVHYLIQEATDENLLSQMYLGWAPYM

B1: GST-XtopBP1 (333-646) (other)
chain: MASRLDPPADTLENLDISSLQAPDDLLDGCRIYLCGFGGRKLDKLRKLINNGGGVRFNQLTGDVTHIIVGETDEELKQFLNKTQHRPYVLTVKWLLDSFAKGHLQPEEIYFHSSYQQTEMPSPFEPAINLTANKMSSTRGPLNHTRNHQADEDLLSQYTENNSTLIEDEHPKTSNTNSISQMSMHEDMTTCTSQSGLADTSTIIEGGLFSRKQFMVLGFLEEDEACIIDIIKKSAGKVLSSQKRAIADYAVVPLLGCEVESTVGEVVTNAWLGMCIEQEKLLDPHSNALFTPVPFLEGSTPLRECVLSVSQFMG
notes: BRCT-containing fragment; not shown: glutathione-S-transferase (GST) fusion partner
binding result [1]: no binding

B2: GST-XtopBP1 (1197-1513) (other)
chain: EFEPKSAMRTPVIENNLQSPTKPDHLTPTPQAPSIAFPLANPPVAPQPREKPVQPFSKEETLKERRFQLSSLDPQERIDYSQLIEELGGVVIEKQCFDPSCTHIVVGHPLRNEKYLASMAAGKWVLHRSYLEACRAAKRFIQEEDYEWGSISILSAVTNINPQQRMLAEAAMRWRKKLQGIKQNMGIAEGAFSGWKVILNVDQTKEPGFKRLLQSGGAKVFAGHSSPLFKEASHLFADFSKLKPDEPRVNVAEAAAQGVNCLKPEYIADYLMKELPPPMNNYCLPDAIPYVRVTGTGLSRKRKTSGDVSDVKRSRHY
notes: as for B1
binding result [2]: no binding

The next lines start with the values.

binding result [1]: no binding
B3: GST-XtopBP1 (623-984) (other)
chain: TPVPFLEGSTPLRECVLSVSQFMGAERDSLVYLAGLLGAKVQEFFVRKANPKKGMFASTHLVLKDAEGSKYEAAKKWNLPAVTMNWLLQCARTGRKADEDSYLVDNVPEEDKDESFISQTYKPQAIRLSMHAPCHLENHPEALTKAAVTPLDMNRFKSKAFQSVISQHNKNPQTSGGESKVLQREPSLHLDTPSKFLSKDKLFKPSFDVKDALAALETPGGPNQKNRTQSTPLSEVIGRNLQLAIANSTRQTAAVTASPQLKAAEKKEFDNSKLLINVVICVSKKLIKKQGELNGIAASLGAEYRWCFDESVTHFIYHGRQNDMSREYKSVKERSGIYIVSEHWLFACSEQQKRVPEALYPH
notes: BRCT-containing fragment; also called GST fusion of the 623-984 segment from XtopBP1; not shown: glutathione-S-transferase (GST) fusion partner

binding result [1]: no binding
B4: GST-XtopBP1 (1-348) (other)
chain: MASSENEPFCVKFIKSPENSEYFFKAYEAIKQIQSDESLQLTEEREALLLKEKDKSLYICDPFSGAAFSHLKKLGCRIVGPQVVIFCMENQRRVPRAEYPVYNMAMADVTISCTSLDKETREDVHHYVQIMGGCVYRDLNVSVTHLIAGEVGSKKYLVAASLEKPILLPSWVKELWEKSNQRIIRYSDVNMTEYLCPIFRGCTICVTGLSSLDRKEVQRLTALHGGEYTGQLKMNESTHLIVQEAKGQKYECARKWNVHCISVQWFFDSIEKGFCQDETMYKIEPASTIKSVPDTSTPTGGNSKPNSRALYDVSQISNISTSCVNESAFNSAMASRLDPPADTLENLD
notes: as for B1

Reference: patent US20090098111A1 (CALIFORNIA INSTITUTE OF TECHNOLOGY, published 2009)
